± gives the standard deviation of the averaged measurements.
System: ATP
Assay: switch fluorescence ratio, 500 uM ATP over buffer (Cy3 cluster intensity, sum of 5 cycles each) (fold (ratio)); higher = stronger signal-on switching upon ATP binding; sequences stand for … in TCGTCGGCAGCGTCAGATGTGTATAAGAGACAGTTTTTTTTTTTTTTTTTTTTTTTTT…TC
Details: aptamer strand: ATP DNA aptamer (quencher-CACCTGGGGGAGTATTGCGGAGGAAGG + anchor), 100 nM annealed; ATP concentration: 500 uM
How it was run: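 Clusters with intensities outside 100-1000 RFU were excluded. The remaining Cy3-labelled switching-strand clusters on a modified Illumina MiSeq flow-cell had been annealed to 100 nM quencher-labelled ATP aptamer and imaged in selection buffer, then after 15 min with 500 uM ATP at 22 °C, for five cycles separated by NaOH stripping and re-annealing. The fluorescence ratio, averaged per switch-domain sequence, is each cluster's summed target-cycle Cy3 intensity over its summed buffer-cycle Cy3 intensity.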
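Also: ATP exposure 15 min at 22 °C before imaging.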

| Sequence | switch fluorescence ratio |
| --- | --- |
| GGGAAGTCGT | 0.964 ± 0.039 |
| GCAAGGCGGA | 1.03 ± 0.0091 |
| CGAGGGTCCG | 0.99899 ± 0.00035 |
| GATGGGAAGT | 1.01 ± 0.024 |
| CCGTAAGCAG | 1.96 ± 0.034 |
| GAGACATGTT | 0.99 ± 0.065 |
| TTAGGATGTT | 1.0069 ± 0.00069 |
| TTTTGACATT | 1.05 ± 0.032 |
| GGATAACGGG | 1.02 ± 0.023 |
| GAATGACAGT | 0.978 ± 0.018 |
| TTGATTGAGG | 1 ± 0.017 |
| TGTTTTAGGT | 1.02 ± 0.029 |
| CATCGACTGG | 0.965 ± 0.017 |
| TTCAGTATCA | 1.06 ± 0.061 |
| ACTAATGGTT | 1.03 ± 0.022 |
| GTGTCAAAGA | 0.984 ± 0.02 |
| GCCAAAAGGG | 1.015 ± 0.008 |
| GACGAAAAGG | 1.75 ± 1.1 |
| TAGTAGTCAA | 1.03 ± 0.011 |
| AAATTGAGAG | 1.004 ± 0.0021 |
| AAAGTGTTGC | 1.05 ± 0.042 |
| GTGGTTTTGG | 1 ± 0.035 |

| Sequence | switch fluorescence ratio |
| --- | --- |
| TTTACGGCGG | 0.987 ± 0.021 |
| GACATTCACT | 1.108 ± 0.0088 |
| ATTTCGACAC | 1.0254 ± 0.001 |
| TTCATTGGTG | 1.09 ± 0.035 |
| ATTTCGTGGG | 0.978 ± 0.023 |
| TTTTGCGATT | 1.015 ± 0.0065 |
| CGTGAGGGTC | 1 ± 0.059 |
| TTGAGGATAG | 0.987 ± 0.021 |
| GTCTGGGCGA | 1.01 ± 0.033 |
| AAGAGAACTT | 0.993 ± 0.013 |
| TTCGTATATT | 1.02 ± 0.017 |
| TAATCGGGCG | 1.02 ± 0.022 |
| AGATAGGGGG | 1 ± 0.034 |
| CCGGGTGACC | 1.143 ± 0.0068 |
| AGGGCATTGA | 1.01 ± 0.022 |
| GATGGGCTTT | 0.983 ± 0.024 |
| TTTTTCCATT | 1.01 ± 0.027 |
| TAATGCCTGT | 0.979 ± 0.021 |
| AATAGAAGGA | 0.9888 ± 0.0037 |
| CGGTGTTTTC | 0.972 ± 0.046 |
| CGGAGGACAC | 1.09 ± 0.059 |
